Measured values taken from patent publication US9260728B2, “Terpene synthases from Santalum” (UNIVERSITY OF BRITISH COLUMBIA, priority 2009, dated 2016).

Experiments:
Assay type in all cases: biochemical
[1] = GC-FID determination of reaction products of terpene synthases from FPP with magnesium or manganese
Procedure: Enzyme assays for all recombinant proteins were done in triplicate using the GC vial method described by O'Maille et al. (Anal. Biochem. 335:[…] (2004). For enzyme assays where only product identification was needed, 10 μg of protein was used in a final volume of 500 μL of reaction buffer (25 mM HEPES, 10% glycerol, 5 mM DTT and 10 mM of either Mg^2+ or Mn^2+. Substrates (FPP and GPP) were added to a final reaction concentration of 100 μM. Vials were overlaid with 500 μL of hexane to trap volatile products and incubated at 30° C. for 2 h. Mixtures were vortexed for 1 min to extract all volatiles and the vials were centrifuged to separate the organic layer.
Product mixtures were analysed by GC-MS in scan mode for product identification. A standard containing the three santalenes and α-trans-bergamotene was prepared by flash chromatography of 2 mL of neat S. album oil over silica and eluted in hexane. A final yield of 25 mg was resuspended in EtOAc and purity was confirmed by GC-FID with conditions described below. All mass spectra were compared to the NIST 2005 library and the literature. Retention indices were determined for all compounds using an n-alkane standard and compared to the literature (R. P. Adams, “Identification of essential oil components by gas chromatography/mass spectrometry,” Allured Publishing Corporation, Carol Stream, Ill. (1995)).
(§1) GC-FID was performed on a Shimadzu GC2010 with a 30 m 0.25 mm ID, 0.25 μm film DB-WAX column with He as the carrier gas. Splitless injection (2 μL) was used for all analyses. Conditions were as follows: injector 200° C., detector 250° C., column flow rate 1 mL/min. Oven program: 40° C. for 3 min, then 8° C./min to 180° C., held 5 min, then 10° C./min to 220° C., held 10 min. Needle height was adjusted to only draw from the upper organic layer of all sample vials. GC-MS was performed on a Shimadzu GC2010 with the same DB-WAX column and using He as the carrier gas. Conditions were as follows: injector 200° C., MS interface 240° C., ion source 200° C. Oven program: 40° C. for 3 min, then 8° C./min to 180° C., held 5 min, then 10° C./min to 220° C., held 10 min. Solvent cut time was set to 5 min. For product identification, total ion monitoring was used, scanning from m/z 45 to m/z 300. For kinetic assays, single ion monitoring of the sesquiterpene base ions m/z 91, 93 and 94 were used. Likewise monoterpene base ions (m/z 69, 71 and 93) were monitored. An internal standard (isobutyl benzene, 30 μM) was added to the hexane used to overlay each reaction. Detector response factors were calculated based on the santalene standard prepared earlier and used to determine the product concentrations for kinetic analysis.

[2] = SaSSy enzyme assay with GPP, GC-MS product analysis; conditions: GPP as substrate, Mn^2+
Procedure: Enzyme assays for both recombinant isoenzyme proteins P143 and S143 were done in duplicate using GC vials as per O'Maille, P. E., et al. (“A single-vial analytical and quantitative gas chromatography-mass spectrometry assay for terpene synthases,” Anal. Biochem. 335:210-217 (2004)). […] 20 μL of substrates FPP and GPP (˜1 mg/mL) were added and the mixture gently shaken. Final enzyme concentration was 0.3 mg/mL. Vials were overlaid with 500 μL of pentane to trap volatile products and incubated at 30° C. for 2 h.
The product mixture of the SaSSy enzyme was analysed on an Agilent 6890 GC with a 5973 MSD using helium as carrier gas. Peak identification was done using an HP5-MS capillary column (30 m, 0.25 mm ID, […]). Injector temperature was 240° C., detector temperature was set at 250° C., injection volume was 1 μL and column flow rate was 1 mL/min. Oven temperature program was as follows: oven program was held for 1 min at 40° C., then ramped at 7.5° C./min to 250° C. and held. All mass spectra were detected at 70 eV in multiple ion scan mode. […]

[3] = Steady-state enzyme kinetic assays
Procedure: For determination of steady-state enzyme kinetic constants, conditions were as described previously except the enzyme concentration was kept at 10 nM. Substrate concentrations ranged from 1 uM to 100 uM, and reactions were incubated at 30° C. for exactly 5 mins. Reactions were quenched by the addition of 500 μL 0.5 M EDTA, pH 8.0 and vortexed as above.
as §1

[4] = GC-FID determination of reaction products of terpene synthases from FPP with magnesium or manganese; remark: listed apart in the source
[5] = SaSSy enzyme assay with FPP, GC-MS product analysis
Procedure: Enzyme assays for both recombinant isoenzyme proteins P143 and S143 were done in duplicate using GC vials as per O'Maille, P. E., et al. (“A single-vial analytical and quantitative gas chromatography-mass spectrometry assay for terpene synthases,” Anal. Biochem. 335:210-217 (2004)). For each assay, 20 μL of protein (8 mg/mL) was added to 450 μL of reaction buffer containing 25 mM HEPES, 10% glycerol, 5 mM DTT and 10 mM of Mg^2+. 20 μL of substrates FPP and GPP (˜1 mg/mL) were added and the mixture gently shaken. Final enzyme concentration was 0.3 mg/mL. Vials were overlaid with 500 μL of pentane to trap volatile products and incubated at 30° C. for 2 h.
The product mixture of the SaSSy enzyme was analysed on an Agilent 6890 GC with a 5973 MSD using helium as carrier gas. Peak identification was done using an HP5-MS capillary column (30 m, 0.25 mm ID, […]). Injector temperature was 240° C., detector temperature was set at 250° C., injection volume was 1 μL and column flow rate was 1 mL/min. Oven temperature program was as follows: oven program was held for 1 min at 40° C., then ramped at 7.5° C./min to 250° C. and held. All mass spectra were detected at 70 eV in multiple ion scan mode.
The identities of products from SaSSy incubations were confirmed by comparison of mass spectra retention times to authentic sandalwood oil in the NIST 2005 library, see publications by Adams, R. P. (“Identification of essential oil components by gas chromatography/mass spectrometry,” Allured Publishing Corporation, Carol Stream, Ill. (1995)) and MassFinder (www.massfinder.com).
The mass spectrum of the four compounds produced by the SaSSy enzyme (shown in FIG. 2A) are the same as those of natural β-santalene produced in sandalwood trees (see Adams (1995), cited above, for comparison profiles).

Relative % composition in oil produced by enzyme: E-α-bergamotol ([1]; GC-FID): 16.0%
Relative % composition in oil produced by enzyme: β-santalol ([1]; GC-FID): 31.5%
Relative % composition in oil produced by enzyme: epi-β-santalol [4]: 4.7%
Relative % composition in oil produced by enzyme: α-santalol [4]: 45.3%
epi-β-santalene in product mixture ([5]; FPP, Mg^2+ buffer): 4.3%
α-santalene in product mixture ([5]; FPP, Mg^2+ buffer): 34.7%
α-trans-bergamotene in product mixture ([5]; FPP, Mg^2+ buffer): 11.1%
β-santalene in product mixture ([5]; FPP, Mg^2+ buffer): 41.3%
Relative % composition in oil produced by enzyme: E-α-bergamotol ([5]; four major components only): 12.1%
Relative % composition in oil produced by enzyme: epi-β-santalol ([5]; four major components only): 4.7%
Relative % composition in oil produced by enzyme: α-santalol ([5]; four major components only): 38.0%
Relative % composition in oil produced by enzyme: β-santalol ([5]; four major components only): 45.2%
B1: SaSSy: santalene synthase (terpene synthase) from Santalum album, gene SEQ ID NO:1, protein SEQ ID NO:2 (protein, listed as Santalum album)
chain: MDSSTATAMTAPFIDPTDHVNLKTDTDASENRRMGNYKPSIWNYDFLQSLATHHNIVEERHLKLAEKLKGQVKFMFGAPMEPLAKLELVDVVQRLGLNHLFETEIKEALFSIYKDGSNGWWFGHLHATSLRFRLLRQCGLFIPQDVFKTFQNKTGEFDMKLCDNVKGLLSLYEASYLGWKGENILDEAKAFTTKCLKSAWENISEKWLAKRVKHALALPLHWRVPRIEARWFIEAYEQEANMNPTLLKLAKLDFNMVQSIHQKEIGELARWWVTTGLDKLAFARNNLLQSYMWSCAIASDPKFKLARETIVEIGSVLTVVDDGYDVYGSIDELDLYTSSVERWSCVEIDKLPNTLKLIFMSMFNKTNEVGLRVQHERGYNSIPTFIKAWVEQCKSYQKEARWFHGGHTPPLEEYSLNGLVSIGFPLLLITGYVAIAENEAALDKVHPLPDLLHYSSLLSRLINDIGTSPDEMARGDNLKSIHCYMNETGASEEVAREHIKGVIEENWKILNQCCFDQSQFQEPFITFNLNSVRGSHFFYEFGDGFGVTDSWTKVDMKSVLIDPIPLGEE
modifications: SaSSy Protein
E-β-farnesene among reaction products (GC-FID) ([1]; FPP Mg, mean): 1.7
Z-β-farnesene among reaction products (GC-FID) ([1]; FPP Mg, mean): 0.8
epi-β-santalene among reaction products (GC-FID) ([1]; FPP Mg, mean): 4.7
α-E-bergamotene among reaction products (GC-FID) ([1]; FPP Mg, mean): 16.0
α-santalene among reaction products (GC-FID) ([1]; FPP Mg, mean): 45.3
β-santalene among reaction products (GC-FID) ([1]; FPP Mg, mean): 31.5
E-β-farnesene among reaction products (GC-FID) ([1]; FPP Mg, replicate 1): 1.7
Z-β-farnesene among reaction products (GC-FID) ([1]; FPP Mg, replicate 1): 0.7
epi-β-santalene among reaction products (GC-FID) ([1]; FPP Mg, replicate 1): 4.6
α-E-bergamotene among reaction products (GC-FID) ([1]; FPP Mg, replicate 1): 16.3
α-santalene among reaction products (GC-FID) ([1]; FPP Mg, replicate 1): 46.4
β-santalene among reaction products (GC-FID) ([1]; FPP Mg, replicate 1): 30.4
E-β-farnesene among reaction products (GC-FID) ([1]; FPP Mg, replicate 2): 1.7
Z-β-farnesene among reaction products (GC-FID) ([1]; FPP Mg, replicate 2): 1.0
epi-β-santalene among reaction products (GC-FID) ([1]; FPP Mg, replicate 2): 5.1
α-E-bergamotene among reaction products (GC-FID) ([1]; FPP Mg, replicate 2): 15.3
α-santalene among reaction products (GC-FID) ([1]; FPP Mg, replicate 2): 43.8
β-santalene among reaction products (GC-FID) ([1]; FPP Mg, replicate 2): 33.1
E-β-farnesene among reaction products (GC-FID) ([1]; FPP Mg, replicate 3): 1.7
Z-β-farnesene among reaction products (GC-FID) ([1]; FPP Mg, replicate 3): 0.7
epi-β-santalene among reaction products (GC-FID) ([1]; FPP Mg, replicate 3): 4.3
α-E-bergamotene among reaction products (GC-FID) ([1]; FPP Mg, replicate 3): 16.4
α-santalene among reaction products (GC-FID) ([1]; FPP Mg, replicate 3): 45.6
β-santalene among reaction products (GC-FID) ([1]; FPP Mg, replicate 3): 31.2
E-β-farnesene among reaction products (GC-FID) ([1]; FPP Mn, mean): 7.6
Z-β-farnesene among reaction products (GC-FID) ([1]; FPP Mn, mean): 0.5
epi-β-santalene among reaction products (GC-FID) ([1]; FPP Mn, mean): 0.7
α-E-bergamotene among reaction products (GC-FID) ([1]; FPP Mn, mean): 74.7
α-santalene among reaction products (GC-FID) ([1]; FPP Mn, mean): 9.8
β-santalene among reaction products (GC-FID) ([1]; FPP Mn, mean): 6.6
E-β-farnesene among reaction products (GC-FID) ([1]; FPP Mn, replicate 1): 7.4
Z-β-farnesene among reaction products (GC-FID) ([1]; FPP Mn, replicate 1): 0.6
epi-β-santalene among reaction products (GC-FID) ([1]; FPP Mn, replicate 1): 0.9
α-E-bergamotene among reaction products (GC-FID) ([1]; FPP Mn, replicate 1): 75.7
α-santalene among reaction products (GC-FID) ([1]; FPP Mn, replicate 1): 9.5
β-santalene among reaction products (GC-FID) ([1]; FPP Mn, replicate 1): 6.0
E-β-farnesene among reaction products (GC-FID) ([1]; FPP Mn, replicate 2): 8.0
Z-β-farnesene among reaction products (GC-FID) ([1]; FPP Mn, replicate 2): 0.5
epi-β-santalene among reaction products (GC-FID) ([1]; FPP Mn, replicate 2): 0.8
α-E-bergamotene among reaction products (GC-FID) ([1]; FPP Mn, replicate 2): 73.4
α-santalene among reaction products (GC-FID) ([1]; FPP Mn, replicate 2): 9.9
β-santalene among reaction products (GC-FID) ([1]; FPP Mn, replicate 2): 7.3
E-β-farnesene among reaction products (GC-FID) ([1]; FPP Mn, replicate 3): 7.5
Z-β-farnesene among reaction products (GC-FID) ([1]; FPP Mn, replicate 3): 0.5
epi-β-santalene among reaction products (GC-FID) ([1]; FPP Mn, replicate 3): 0.5
α-E-bergamotene among reaction products (GC-FID) ([1]; FPP Mn, replicate 3): 74.9
α-santalene among reaction products (GC-FID) ([1]; FPP Mn, replicate 3): 10.1
β-santalene among reaction products (GC-FID) ([1]; FPP Mn, replicate 3): 6.4
products formed [2]: a mixture of α-pinene, camphene, limonene and α-terpinolene, along with other monoterpene products
Kcat ([3]; FPP): 0.0112 s⁻¹
Vmax ([3]; assays using FPP): 0.42 µM/min
